{"source": "patent US8597902B2", "about": "“Peptide protection against ultraviolet light toxicity” (Helix Biomedix, Inc., priority 2009, dated 2013)", "key": {"[1]": {"biological_target": "T1, Activated human Chk2 enzyme (Homo sapiens, UniProt O96017)", "T1 construct": "purchased Sigma (St. Louis, MO)", "T1 sequence (O96017 whole entry)": "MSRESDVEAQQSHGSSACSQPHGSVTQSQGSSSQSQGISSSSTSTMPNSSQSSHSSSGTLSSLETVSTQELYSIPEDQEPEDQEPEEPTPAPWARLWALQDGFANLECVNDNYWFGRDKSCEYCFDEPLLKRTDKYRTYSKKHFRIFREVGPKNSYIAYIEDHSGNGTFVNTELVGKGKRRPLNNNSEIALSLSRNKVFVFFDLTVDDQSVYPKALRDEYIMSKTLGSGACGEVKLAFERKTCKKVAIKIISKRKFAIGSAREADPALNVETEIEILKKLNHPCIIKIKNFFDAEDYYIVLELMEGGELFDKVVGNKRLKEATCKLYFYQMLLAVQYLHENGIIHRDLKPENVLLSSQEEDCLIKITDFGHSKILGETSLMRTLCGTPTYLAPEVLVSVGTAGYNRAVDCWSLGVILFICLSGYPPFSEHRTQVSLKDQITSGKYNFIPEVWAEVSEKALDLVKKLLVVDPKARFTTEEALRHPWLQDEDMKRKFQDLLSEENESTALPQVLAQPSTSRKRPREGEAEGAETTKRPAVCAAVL", "test": "K-LISA Checkpoint Activity Kit: Chk2 phosphorylation of biotinylated cdc25c surrogate substrate peptide", "type": "biochemical", "conditions": "peptide 50 μg/mL final concentration; for inhibition of the activity of Chk2 against the substrate peptide (in words): carboxy-terminal amidated peptides, absorbance 450/540 nm", "method": "Activated human Chk2enzyme for these tests was obtained from Sigma (St. Louis, MO).\nThis incubation allowed for substrate phosphorylation by Chk2 and substrate capture in a single step. Following incubation, the phosphorylated substrate was detected using an anti-phosphoserine primary antibody, a horseradish peroxidase (HRP)-conjugated secondary antibody and TMB (tetramethylbenzidine) substrate for color development (the primary and secondary antibodies, and TMB, were provided in the K-LISA™ Checkpoint Activity Kit). Assay sensitivity was increased by the addition of the Stop solution provided in the kit. Relative Chk2 activity was determined by reading the absorbance of each well at dual wavelengths 450/540 nm."}, "[2]": {"biological_target": "Activated human checkpoint kinase 2 (Chk2) (human)"}}, "note": "Ends that are not written are not given here."}
{"molecule": "FHSIYQSH (FHSIYQSH-NH2; listed as Homo sapiens) [SEQ ID NO:6]", "values": [{"measurement": "inhibition of the activity of Chk2 against the substrate peptide (in words)", "setting": "[1]", "result": "inhibited"}]}
{"molecule": "YHSLYESK (YHSLYESK-NH2; listed as Homo sapiens) [SEQ ID NO:5]", "values": [{"measurement": "inhibition of the activity of Chk2 against the substrate peptide (in words)", "setting": "[1]", "result": "inhibited"}]}
{"molecule": "YHSLYQSHL (YHSLYQSHL-NH2; listed as Homo sapiens) [SEQ ID NO:2]", "values": [{"measurement": "inhibition of the activity of Chk2 against the substrate peptide (in words)", "setting": "[1]", "result": "inhibited"}]}
{"molecule": "YHSIYQSHI (YHSIYQSHI-NH2; listed as Homo Sapiens) [SEQ ID NO:3]", "values": [{"measurement": "inhibition of the activity of Chk2 against the substrate peptide (in words)", "setting": "[1]", "result": "inhibited"}]}
{"molecule": "HSLYQSH (HSLYQSH-NH2; listed as Homo sapiens) [SEQ ID NO:8]", "values": [{"measurement": "inhibition of the activity of Chk2 against the substrate peptide (in words)", "setting": "[1]", "result": "inhibited"}]}
{"molecule": "SLYQS (not fully specified (C-terminus); listed as Homo sapiens) [SEQ ID NO:10]", "values": [{"measurement": "inhibition of the activity of Chk2 against the substrate peptide (in words)", "setting": "[1]", "result": "inhibited"}, {"measurement": "reduction of Chk2 phosphorylation activity", "setting": "[1]; versus control Chk2 activity", "result": "about 48%"}]}
{"molecule": "SLYQS-NH2", "note": "[SEQ ID NO:10 peptide (SLYQS; Ser-Leu-Tyr-Gln-Ser), carboxy-terminal amidated]", "values": [{"measurement": "Reduction of Chk2 phosphorylation activity (K-LISA, absorbance 450/540 nm)", "setting": "[2]", "result": 48, "unit": "%"}]}
